Data as given in PMC9478954, “Density Control over MBD2 Receptor-Coated Surfaces Provides Superselective Binding of Hypermethylated DNA”.

Columns and labels:
[1] = biological target: T1, His10-MBD2 (UniProt Q9UBB5 151-411); experiment: QCM; 500 nM DNA; threshold MBD2 density ~88 ng/cm2; up to 61% of bound DNA irreversible; BB: 50 mM Tris, 350 mM NaCl, 0.1% Triton X-100 (pH and temperature of BB not stated); 500 nM DNA, 30 min, QCM 5th overtone; His10MBD2 loaded at 1 uM in IB (50 mM Tris pH 7.2, 300 mM NaCl, 0.1% beta-mercaptoethanol); details: protein: recombinant; tags: N-terminal His10; blunt
[2] = biological target: T1, His10-MBD2; experiment: QCM; 500 nM DNA; same trend as Mal5C*pG and Mal3C*pG; plateau between them; BB: 50 mM Tris, 350 mM NaCl, 0.1% Triton X-100 (pH and temperature of BB not stated); 500 nM DNA, 30 min, QCM 5th overtone; His10MBD2 loaded at 1 uM in IB (50 mM Tris pH 7.2, 300 mM NaCl, 0.1% beta-mercaptoethanol); details: protein: recombinant; tags: N-terminal His10; blunt

T1 sequence (Q9UBB5 151-411): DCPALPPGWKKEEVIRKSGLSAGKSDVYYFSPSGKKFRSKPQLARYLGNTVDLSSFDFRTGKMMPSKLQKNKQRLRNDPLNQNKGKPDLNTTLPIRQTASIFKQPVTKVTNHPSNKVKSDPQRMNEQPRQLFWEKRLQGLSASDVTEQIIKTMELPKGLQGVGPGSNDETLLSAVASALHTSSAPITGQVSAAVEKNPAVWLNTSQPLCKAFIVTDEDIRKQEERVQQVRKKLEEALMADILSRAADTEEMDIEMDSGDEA

B1: Mal5C*pG (dsDNA)
DNA 1: CAGGCAGATGCGCAGCACCAAGCAGAGAGGCCCGGTGCAGGATCCCAGGCCCGAACCAGGCCCGGCTCAGTGGAGCCGGAAGGGGCAGGC
DNA 2: GCCTGCCCCTTCCGGCTCCACTGAGCCGGGCCTGGTTCGGGCCTGGGATCCTGCACCGGGCCTCTCTGCTTGGTGCTGCGCATCTGCCTG
modifications: 5-methyl-C at all CpGs, both strands (M.SssI); top strand C11, C33, C52, C63, C77
binding result [1]: binds

B2: Mal4C*pG (dsDNA)
DNA 1: CAGGCAGATGCGCAGCACCAAGCAGAGAGGCCGGGTGCAGGATCCCAGGCCCCGACCAGGCCAGGCTCAGTGGCGCTGGAAGGGGCAGGC
DNA 2: GCCTGCCCCTTCCAGCGCCACTGAGCCTGGCCTGGTCGGGGCCTGGGATCCTGCACCCGGCCTCTCTGCTTGGTGCTGCGCATCTGCCTG
modifications: 5-methyl-C at all CpGs, both strands (M.SssI); top strand C11, C32, C53, C74
binding result [2]: binds
